This test addresses T1, human GIP receptor (human, UniProt P48546 22-466).
T1 sequence (looked up): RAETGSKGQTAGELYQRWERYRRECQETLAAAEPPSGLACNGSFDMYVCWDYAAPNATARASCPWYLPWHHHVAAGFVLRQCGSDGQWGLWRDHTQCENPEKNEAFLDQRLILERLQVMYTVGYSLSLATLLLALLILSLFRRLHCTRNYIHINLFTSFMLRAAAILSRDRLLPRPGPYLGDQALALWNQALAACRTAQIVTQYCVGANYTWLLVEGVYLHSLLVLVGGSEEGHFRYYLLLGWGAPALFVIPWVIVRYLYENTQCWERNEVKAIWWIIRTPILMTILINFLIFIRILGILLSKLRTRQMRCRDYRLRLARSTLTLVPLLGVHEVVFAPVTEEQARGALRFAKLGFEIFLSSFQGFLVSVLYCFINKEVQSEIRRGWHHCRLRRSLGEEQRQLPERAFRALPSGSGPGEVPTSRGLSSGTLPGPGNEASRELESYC
The test is described as follows: cell-based or functional assay.

*1 amine or outer side, *2 acyl side, *3 side chain or, on linkers, in order; H or OH if unused. Where no end group is shown, it is not given here. Side-chain parts run from the residue outwards. The star is where a group is joined. C16 diacid = O=C(O)CCCCCCCCCCCCCCC(=O)*; γGlu = O=C(O)[C@H](CCC(=O)[*:2])N[*:1]; AEEA = NCCOCCOCC(=O)O

B1: AT265 (peptide)
peptide: SGTFISDYSIAMDRIKQQDFVNWLLAQR
HELM: PEPTIDE1{S.G.T.F.I.S.D.Y.S.I.A.M.D.R.I.K.Q.Q.D.F.V.N.W.L.L.A.Q.R}|PEPTIDE2{[O=C(O)CCCCCCCCCCCCCCC(=O)[*:2]].[gGlu]}$PEPTIDE1,PEPTIDE2,16:R3-2:R2$$$V2.0; N-terminus assumed
SMILES: CC[C@H](C)[C@H](NC(=O)[C@H](CO)NC(=O)[C@H](Cc1ccc(O)cc1)NC(=O)[C@H](CC(=O)O)NC(=O)[C@H](CO)NC(=O)[C@@H](NC(=O)[C@H](Cc1ccccc1)NC(=O)[C@@H](NC(=O)CNC(=O)[C@@H](N)CO)[C@@H](C)O)[C@@H](C)CC)C(=O)N[C@@H](C)C(=O)N[C@@H](CCSC)C(=O)N[C@@H](CC(=O)O)C(=O)N[C@@H](CCCNC(=N)N)C(=O)N[C@H](C(=O)N[C@@H](CCCCNC(=O)CC[C@H](NC(=O)CCCCCCCCCCCCCCC(=O)O)C(=O)O)C(=O)N[C@@H](CCC(N)=O)C(=O)N[C@@H](CCC(N)=O)C(=O)N[C@@H](CC(=O)O)C(=O)N[C@@H](Cc1ccccc1)C(=O)N[C@H](C(=O)N[C@@H](CC(N)=O)C(=O)N[C@@H](Cc1c[nH]c2ccccc12)C(=O)N[C@@H](CC(C)C)C(=O)N[C@@H](CC(C)C)C(=O)N[C@@H](C)C(=O)N[C@@H](CCC(N)=O)C(=O)N[C@@H](CCCNC(=N)N)C(=O)O)C(C)C)[C@@H](C)CC
On to B1, for which the “CisBio cAMP agonism % Efficacy” value came out at 8%, the “CisBio cAMP antagonism % inhib” value came out at 73%, the “CisBio cAMP antagonism IC50” value was 58.4 nM and the “CisBio cAMP antagonism pIC50” value amounted to 7.2. Further, the “DiscoveRx cAMP agonism Emax” value was determined as 10, the “DiscoveRx cAMP antagonism IC50” value was found to be 33 nM and the “DiscoveRx cAMP antagonism log IC50” value is -7.5 log M.

B2: AT518 (peptide)
peptide: PGTFISDYSIAMDRIK([AEEA-AEEA-γGlu-C16 diacid])QQDFVNWLLAQR-NH2
modifications: N-terminus assumed
SMILES: CC[C@H](C)[C@H](NC(=O)[C@H](CO)NC(=O)[C@H](Cc1ccc(O)cc1)NC(=O)[C@H](CC(=O)O)NC(=O)[C@H](CO)NC(=O)[C@@H](NC(=O)[C@H](Cc1ccccc1)NC(=O)[C@@H](NC(=O)CNC(=O)[C@@H]1CCCN1)[C@@H](C)O)[C@@H](C)CC)C(=O)N[C@@H](C)C(=O)N[C@@H](CCSC)C(=O)N[C@@H](CC(=O)O)C(=O)N[C@@H](CCCNC(=N)N)C(=O)N[C@H](C(=O)N[C@@H](CCCCNC(=O)COCCOCCNC(=O)COCCOCCNC(=O)CC[C@H](NC(=O)CCCCCCCCCCCCCCC(=O)O)C(=O)O)C(=O)N[C@@H](CCC(N)=O)C(=O)N[C@@H](CCC(N)=O)C(=O)N[C@@H](CC(=O)O)C(=O)N[C@@H](Cc1ccccc1)C(=O)N[C@H](C(=O)N[C@@H](CC(N)=O)C(=O)N[C@@H](Cc1c[nH]c2ccccc12)C(=O)N[C@@H](CC(C)C)C(=O)N[C@@H](CC(C)C)C(=O)N[C@@H](C)C(=O)N[C@@H](CCC(N)=O)C(=O)N[C@@H](CCCNC(=N)N)C(N)=O)C(C)C)[C@@H](C)CC
Take B2: the “CisBio cAMP agonism % Efficacy” value worked out at 0%, the “CisBio cAMP antagonism % inhib” value was 71%, the “CisBio cAMP antagonism IC50” value stood at 85.8 nM and the “CisBio cAMP antagonism pIC50” value came out at 7.1. Further, the “DiscoveRx cAMP agonism Emax” value was 5, the “DiscoveRx cAMP antagonism % inhib” value was determined as 100%, the “DiscoveRx cAMP antagonism IC50” value stood at 346 nM and the “DiscoveRx cAMP antagonism log IC50” value was -6.5 log M.

With EGTFISDYSIAMDRIK([AEEA-γGlu-C16 diacid])QQDFVNWLLAQR-NH2 (not fully specified (residue 1)) [AT373], the “CisBio cAMP agonism % Efficacy” value is 0%, the “CisBio cAMP antagonism % inhib” value is 91%, the “CisBio cAMP antagonism IC50” value was 12.6 nM and the “CisBio cAMP antagonism pIC50” value amounted to 7.9. Besides, the “DiscoveRx cAMP antagonism % inhib” value turned out to be 94%, the “DiscoveRx cAMP antagonism IC50” value came out at 10 nM and the “DiscoveRx cAMP antagonism log IC50” value is -8 log M.

The record behind these values is patent publication US20220025010A1 (ANTAG THERAPEUTICS, published 2022).
